Assay [1] has as its target dog K12del HA-tagged retinol-binding protein (^HARBP) (dog). Description: non-reducing SDS-PAGE and western blot; conditioned media of transfected HeLa cells; no beta-mercaptoethanol; anti-HA, LI-COR. In general terms: Immunoblotting shows a protein as a band on a membrane.
Assay [2] has as its target dog K12del retinol-binding protein (RBP) in serum (dog (endogenous in serum)). Description: non-reducing SDS-PAGE and western blot; dog serum; non-reducing conditions; gels treated with beta-mercaptoethanol before transfer.

The source of these data is PMC6546432.

Turning to “dog K12del HA-tagged retinol-binding protein (^HARBP) (natural protein)”, the dimer fraction in assay [1] worked out at 0.89.
A word on the stoichiometry N: it is a count of units in the complex or per binding partner. Substance “dog K12del retinol-binding protein (RBP) in serum (natural protein)” registered a stoichiometry N in assay [2] of 2.
